Assay results: publication PMC10630519, “Structural insights into the modulation of coronavirus spike tilting and infectivity by hinge glycans” (Nature Communications, 2023)

Molecular target: the molecule itself
Assay: cryo-EM structure; cryoET and subtomogram averaging of spikes on vitrified, chemically unfixed HCoV-NL63 virions in NTE buffer (20 mM Tris pH 8.0, 120 mM NaCl, 1 mM EDTA); 18,356 spike subvolumes; C3 symmetry imposed; focused classification of RBD and domain 0

B1: human coronavirus NL63 (HCoV-NL63) spike glycoprotein (S) (natural protein)
chain: CNSNANLSMLQLGVPDNSSTIVTGLLPTHWFCANQSTSVYSANGFFYIDVGNHRSAFALHTGYYDANQYYIYVTNEIGLNASVTLKICKFSRNTTFDFLSNASSSFDCIVNLLFTEQLGAPLGITISGETVRLHLYNVTRTFYVPAAYKLTKLSVKCYFNYSCVFSVVNATVTVNVTTHNGRVVNYTVCDDCNGYTDNIFSVQQDGRIPNGFPFNNWFLLTNGSTLVDGVSRLYQPLRLTCLWPVPGLKSSTGFVYFNATGSDVNCNGYQHNSVVDVMRYNLNFSANSLDNLKSGVIVFKTLQYDVLFYCSNSSSGVLDTTIPFGPSSQPYYCFINSTINTTHVSTFVGILPPTVREIVVARTGQFYINGFKYFDLGFIEAVNFNVTTASATDFWTVAFATFVDVLVNVSATNIQNLLYCDSPFEKLQCEHLQFGLQDGFYSANFLDDNVLPETYVALPIYYQHTDINFTATASFGGSCYVCKPHQVNISLNGNTSVCVRTSHFSIRYIYNRVKSGSPGDSSWHIYLKSGTCPFSFSKLNNFQKFKTICFSTVEVPGSCNFPLEATWHYTSYTIVGALYVTWSEGNSITGVPYPVSGIREFSNLVLNNCTKYNIYDYVGTGIIRSSNQSLAGGITYVSNSGNLLGFKNVSTGNIFIVTPCNQPDQVAVYQQSIIGAMTAVNESRYGLQNLLQLPNFYYVSNGGNNCTTAVMTYSNFGICADGSLIPVRPRNSSDNGISAIITANLSIPSNWTTSVQVEYLQITSTPIVVDCATYVCNGNPRCKNLLKQYTSACKTIEDALRLSAHLETNDVSSMLTFDSNAFSLANVTSFGDYNLSSVLPQRNIRSSRIAGRSALEDLLFSKVVTSGLGTVDVDYKSCTKGLSIADLACAQYYNGIMVLPGVADAERMAMYTGSLIGGMVLGGLTSAAAIPFSLALQARLNYVALQTDVLQENQKILAASFNKAINNIVASFSSVNDAITQTAEAIHTVTIALNKIQDVVNQQGSALNHLTSQLRHNFQAISNSIQAIYDRLDSIQADQQVDRLITGRLAALNAFVSQVLNKYTEVRGSRRLAQQKINECVKSQSNRYGFCGNGTHIFSIVNSAPDGLLFLHTVLLPTDYKNVKAWSGICVDGIYGYVLRQPNLVLYSDNGVFRVTSRVMFQPRLPVLSDFVQIYNCNVTFVNISRVELHTVIPDYVDVNKTLQEFAQNLPKYVKPNFDLTPFNLTYLNLSSELKQLEAKTASLFQTTVELQGLIDQINSTYVDLKLLNRFENYIKWPWWVWLIISVVFVVLLSLLVFCCLSTGCCGCCNCLTSSMRGCCDCGSTKLPYYEFEKVHVQ
modifications: N-linked glycans at 39 N-glycosylation sites (among them N240, N354, N358, N426, N486, N506, N512, N749, N844, N852, N1111, N1196, N1201, N1218, N1242, N1247, N1277)
notes: Spike glycoprotein S of human coronavirus NL63 (virus from BEI Resources NR-470), full-length S in the viral envelope; not cleaved at S1/S2 (single band of about 250 kD); Native membrane-anchored trimer on virions; The model covers the crown, residues 1-1224; the stalk (1216-1297) is only a predicted model; also called S trimer; S protomer; source: no chemical fixation
stoichiometry N: 3
